Source: the supplement of paper PMC9732359
± gives the uncertainty stated by the source.

Assay: protein stability index of a GFP-peptide fusion (yeast GPS) (PSI 1-4); higher = more stable; sorted into four equal gates, so the index is relative within each strain
Summary of the method: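 Tiled yeast protein peptides of 17 residues were each joined downstream of GFP, on plasmids that also express Cherry. The pooled library was maintained in yeast, and mid-log cultures in leucine-free medium were sorted into four equal gates on the GFP/Cherry ratio. Plasmids from every gate were amplified by PCR and sequenced on Illumina, with barcodes linking reads to strains. The protein stability index of a peptide is its gate-number-weighted read frequency summed over the gates.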

| Sequence | protein stability index (doa10∆) | protein stability index (pdr5∆) | protein stability index (san1∆) | protein stability index (ubr1∆) |
| --- | --- | --- | --- | --- |
| ESISQTPISNEQTEGEP [SRP68] | 3.21 ± 0.1 | 3.29 ± 0.16 | 3.16 ± 0.071 | 3.19 ± 0.065 |
| ISFRSNLLKNFISSNDA [SNF6] | 2.77 ± 0.12 | 1.75 ± 0.086 | 2.35 ± 0.21 | 2.27 ± 0.074 |
| LCYMAPMTVKLVQLPKS [POP3] | 2.37 ± 0.065 | 2.23 ± 0.063 | 2.39 ± 0.06 | 2.76 ± 0.065 |
| SSRLEFVKGISRDIKAL [YML103C/NUP188] | 2.39 ± 0.081 | 1.81 ± 0.057 | 1.99 ± 0.085 | 1.62 ± 0.04 |
| LEKLVDHHPEGLSAREA [PRE10] | 2.92 ± 0.068 | 2.9 ± 0.059 | 2.65 ± 0.067 | 2.62 ± 0.058 |
| LFQVEYSLEAIKLGSTA [PUP2] | 1.61 ± 0.075 | 2.32 ± 0.069 | 2.08 ± 0.12 | 2.2 ± 0.053 |
| NVMTPREQYETQVALNE [UBP6] | 3.17 ± 0.087 | 3.22 ± 0.16 | 2.83 ± 0.13 | 3.05 ± 0.091 |
| LEWLENPSNTPDKDYLL [FAS1] | 3.16 ± 0.11 | 3.21 ± 0.088 | 3.27 ± 0.071 | 3.29 ± 0.11 |
| KNLERLRGEYNDLQSET [SMC4] | 3.33 ± 0.2 | 3.4 ± 0.083 | 3.25 ± 0.067 | 2.9 ± 0.06 |
| ASKSGKLTQKLVTAGVA [CYT1] | 1.85 ± 0.068 | 1.83 ± 0.057 | 2.45 ± 0.062 | 1.95 ± 0.048 |
| WASKYGQEYPRIIGLSA [BRR2] | 1.47 ± 0.073 | 2.32 ± 0.089 | 1.87 ± 0.085 | 1.93 ± 0.052 |
| GIFIKILNDSLIYHLKD [IRR1] | 1.54 ± 0.045 | 1.31 ± 0.048 | 1.69 ± 0.068 | 1.75 ± 0.033 |
| RCIGDSDNVSFEIQGVP [YMR129W/POM152] | 3.17 ± 0.1 | 3.39 ± 0.085 | 3.28 ± 0.059 | 3.35 ± 0.06 |
| KIFQTTPEKDLFIGLFT [YCS4] | 2.1 ± 0.088 | 1.84 ± 0.055 | 2.41 ± 0.11 | 2.58 ± 0.066 |
| LDTRKELWRKEQKLQTV [SMC3] | 1.79 ± 0.069 | 2.58 ± 0.081 | 2.83 ± 0.16 | 2.99 ± 0.058 |
| TVQLTFLIDVLKIYAQI [YCG1] | 1.58 ± 0.047 | 1.99 ± 0.05 | 1.74 ± 0.059 | 1.7 ± 0.042 |
| IIKMTIPYAAKLLFQEL [RET1] | 2.18 ± 0.1 | 2.08 ± 0.12 | 1.75 ± 0.22 | 1.9 ± 0.073 |
| NVQTQYREAPVIYRGPE [RET1] | 2.53 ± 0.095 | 2.97 ± 0.069 | 3.36 ± 0.042 | 3.14 ± 0.051 |
| LTESQTETYISDLVNQG [RPN5] | 3.18 ± 0.076 | 3.38 ± 0.071 | 3.12 ± 0.051 | 3.21 ± 0.071 |
| KFENDELAESTTTKIID [LRP1] | 2.04 ± 0.13 | 2.47 ± 0.12 | 2.23 ± 0.086 | 2.27 ± 0.053 |
| ETLGDILKRDFELVSDL [ECM29] | 3.27 ± 0.14 | 3.39 ± 0.17 | 2.95 ± 0.22 | 3.08 ± 0.17 |
| EAGLQLCRQGHNMLNLL [PRP8] | 2.24 ± 0.079 | 2.29 ± 0.12 | 2.07 ± 0.14 | 1.99 ± 0.06 |
| NLGYCNDKLIVDNDNWV [RPN1] | 2.37 ± 0.1 | 2.79 ± 0.18 | 2.32 ± 0.2 |  |
| ELLIYKKSQCKKKTTLE [YIL149C/MLP2] | 3.03 ± 0.21 | 3.29 ± 0.13 | 2.95 ± 0.083 | 3.19 ± 0.15 |
| KLDENNAQLSCITKQDG [PUP2] | 2.79 ± 0.12 | 3.13 ± 0.087 | 3.11 ± 0.098 | 3.06 ± 0.088 |
| NCNIKDFKPPYIYSHVN [SWP82] | 2.73 ± 0.086 | 2.77 ± 0.086 | 2.45 ± 0.11 | 2.91 ± 0.057 |
| LQRHLSLGIRPCLRKYE [RRP43] | 2.61 ± 0.061 | 2.66 ± 0.063 | 2.82 ± 0.075 | 3.08 ± 0.053 |

| Sequence | protein stability index (doa10∆) | protein stability index (pdr5∆) | protein stability index (san1∆) | protein stability index (ubr1∆) |
| --- | --- | --- | --- | --- |
| LRKQKDSSTTSSNSQQS [ITC1] | 3.12 ± 0.059 | 3.04 ± 0.066 | 3.07 ± 0.06 | 3.19 ± 0.059 |
| SVALHRHSNALVDILPP [RPT3] | 1.63 ± 0.047 | 2.1 ± 0.056 | 2 ± 0.07 | 1.94 ± 0.041 |
| QPTNFTTKRLWSEITES [MCD1] | 1.99 ± 0.088 | 2.38 ± 0.066 | 2.04 ± 0.089 | 2.04 ± 0.09 |
| HNKLNITSDALEGITTT [SMC3] | 3.19 ± 0.16 | 3.09 ± 0.15 | 3.03 ± 0.092 | 3.1 ± 0.092 |
| EWDMLNVEEEQIVPYIE [BRR2] | 3.2 ± 0.17 | 3.41 ± 0.18 | 3.02 ± 0.24 | 3.45 ± 0.29 |
| HETLARSSEEINSDNQN [RPN3] | 3.15 ± 0.26 |  |  | 3.16 ± 0.19 |
| ERRMQVTAEDFKQAKER [RPT2] | 3.02 ± 0.1 | 3.29 ± 0.11 | 3 ± 0.088 | 3.56 ± 0.12 |
| TFIYGYCDKNFRENMSK [PRE3] | 2.12 ± 0.079 | 2.17 ± 0.066 | 2.21 ± 0.092 | 2.65 ± 0.053 |
| RSLEKVNNSVSKTGSVD [SSN2] | 2.38 ± 0.11 | 3.53 ± 0.15 | 3.36 ± 0.14 | 3.37 ± 0.11 |
| MLQKKLVEVEDEKIEAI [SRB7] | 3 ± 0.11 | 3.37 ± 0.1 | 3.16 ± 0.082 | 3.39 ± 0.086 |
| SGNGSNPNTNTNSNNTP [PGD1] | 2.78 ± 0.062 | 3 ± 0.056 | 2.95 ± 0.038 | 2.87 ± 0.041 |
| ENIIQRLQAANSMEYTG [CDC53] | 1.94 ± 0.065 | 2.32 ± 0.11 | 2.25 ± 0.18 | 1.9 ± 0.095 |
| IRDSIPQMDSFDKDLER [DIS3] | 3.15 ± 0.092 | 3.32 ± 0.1 | 3.19 ± 0.061 | 3.01 ± 0.12 |
| VNTEKKTIEVTAEINCF [RPN3] |  | 1.35 ± 0.11 | 1.78 ± 0.21 | 1.62 ± 0.16 |
| AQAQAQAQAQAQAQAQA [GAL11] | 2.95 ± 0.03 | 3.23 ± 0.035 | 2.98 ± 0.026 | 3.09 ± 0.033 |
| GKPTVNKKPKNKKKGRK [SRP72] | 3.42 ± 0.084 | 3.29 ± 0.1 | 2.93 ± 0.1 | 3.24 ± 0.092 |
| DQVLVKGGEQISQLYSD [YJL041W/NSP1] | 3.18 ± 0.091 | 3.16 ± 0.082 | 3.2 ± 0.061 | 3.16 ± 0.091 |
| DVFDTLATYCPRVQGFY [GRR1] | 2.65 ± 0.075 | 2.26 ± 0.054 | 2.36 ± 0.078 | 2.6 ± 0.055 |
| INKQRVPLSDNAIIEAN [RPL7A] | 2.6 ± 0.058 | 2.61 ± 0.064 | 2.51 ± 0.066 | 2.54 ± 0.053 |
| TNQKDTNDHVDKRTKID [ISW2] | 2.77 ± 0.069 | 3.05 ± 0.07 | 2.81 ± 0.059 | 2.72 ± 0.044 |
| AVDLEHHDYRSYYGIVC [RRP6] | 2.5 ± 0.067 | 2.77 ± 0.049 | 2.37 ± 0.083 | 2.97 ± 0.038 |
| NGVPGQALDAVRMRLAQ [MED8] | 1.38 ± 0.067 | 1.39 ± 0.063 | 1.25 ± 0.1 | 1.26 ± 0.047 |
| QTRWGLPSGRQDGVLLV [FAS2] | 1.65 ± 0.12 |  | 1.59 ± 0.24 | 1.32 ± 0.15 |
| DYSINSRYEPKVFDCGD [PRE7] | 2.73 ± 0.076 | 2.59 ± 0.053 | 2.9 ± 0.068 | 2.59 ± 0.063 |
| KPVYKGKKLTDEINTAQ [RET1] | 2.92 ± 0.12 | 2.99 ± 0.094 | 2.75 ± 0.084 | 3.2 ± 0.077 |
| EKDLEHWLQLAKGVYRP [POP1] | 2.64 ± 0.072 | 3 ± 0.067 | 3.15 ± 0.041 | 3.1 ± 0.064 |
| AFFREKGLVSQQLDSFN [RPB2] | 3.11 ± 0.13 | 3.17 ± 0.19 | 2.96 ± 0.1 | 2.97 ± 0.087 |
